# Literature values in publication PMC6205161.
# Molecular target: apo-GLRX5 (Homo sapiens) (UniProt Q86SX6)
# Assay: thermophoresis
# Sequence of UniProt Q86SX6 (Q86SX6 32-157): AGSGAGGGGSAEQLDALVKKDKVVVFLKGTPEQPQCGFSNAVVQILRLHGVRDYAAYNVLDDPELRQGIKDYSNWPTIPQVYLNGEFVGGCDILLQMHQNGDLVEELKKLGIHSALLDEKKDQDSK
substance,measurement,value
BOLA1 (from UniProt Q9Y3E2),Kd,3000 nM
BOLA3 (from UniProt Q53S33),Kd,3000 nM
